Test results taken from article PMC12207370, “Macrocyclic Peptide Probes for Immunomodulatory Protein CD59: Potent Modulators of Bacterial Toxin Activity and Antibody‐Dependent Cytotoxicity” (Angewandte Chemie (International Ed. in English), 2025).

T1: CD59 (immobilized for SPR), P13987
T1 chain: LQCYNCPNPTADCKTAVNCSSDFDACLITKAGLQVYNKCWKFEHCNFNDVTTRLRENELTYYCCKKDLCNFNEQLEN


Biological target: T1, CD59 (immobilized for SPR), P13987
Assay: SPR
Conditions: chain shown with the change; n = 1

In order of falling ratio to parent:
1. YSWTWANRSSVRGC [CP-06 G6A]  21
2. YSWTWGARSSVRGC [CP-06 N7A]  19
3. YSWTAGNRSSVRGC [CP-06 W5A]  19

Same assay, conditions: chain shown with the change; n = 1; parent: est. 8.0; read off a plot

In order of falling other: pKD (-Log10(KD)):
1. YSWTWGNRSAVRGC [CP-06 S10A]  8
2. YAWTWGNRSSVRGC [CP-06 S2A]  7.9
3. YSWTWGNASSVRGC [CP-06 R8A]  7.8
4. YSWAWGNRSSVRGC [CP-06 T4A]  7.8
5. YSWTWGNRASVRGC [CP-06 S9A]  7.7
6. YSWTWGNRSSARGC [CP-06 V11A]  7.6
7. YSWTWGNRSSVAGC [CP-06 R12A]  7.1
8. YSWTWGARSSVRGC [CP-06 N7A]  6.7
9. YSWTAGNRSSVRGC [CP-06 W5A]  6.7
10. YSWTWANRSSVRGC [CP-06 G6A]  6.7
